For one series, the target named is T1, DDR1 (Homo sapiens, UniProt Q08345).
T1 construct: Cultured T47D breast cancer cells were serum starved for 16 hours; endogenous in cells; host or cells: T47D breast cancer cells
Description: Inhibition of collagen-induced DDR1 phosphorylation in T47D cells (Jess immunoassay). The class given is cell-based. Conditions: serum-starved T47D cells, 2 h pretreatment, 50 μg/ml human collagen I for 90 minutes. On the procedure:
Cells treated with 200 nM of 2.45-IN [2-(4-Bromo-2-oxo-1′-(1H-pyrazolo[4,3-b]pyridine-5-carbonyl)spiro[indoline-3,4′-piperidin]-1-yl)-N-(2,2,2-trifluoroethyl) acetamide] were used as positive control for inhibition of DDR1 phosphorylation. Cell lysate was then analyzed via Jess immunoassay (ProteinSimple).
Serum-starved T47D cells were pretreated for two hours with increasing concentrations of monoclonal antibody or IgG control, followed by stimulation with 50 μg/ml of human collagen I for 90 minutes.

Series [1] is described as follows: Pharmacokinetic profiles of anti-DDR1 mAbs in mice (ELISA of circulating antibody). The class given is in vivo, mouse. The following applies: female C57B16JrJ mice, intraperitoneal, 10 mg/kg; for Cmax: circulating free and partially bound antibody. On the procedure: To evaluate the pharmacokinetic profiles of anti-DDR1 mAbs, mAbs were administered intraperitoneally to female C57B16JrJ mice at a dose of 10 mg/kg, serial blood sampling was performed over time (FIG. 4A), and ELISA was used to measure circulating free and partially bound antibody. […] Further, as shown in FIG. 4E and Table S1 below, the maximal circulating (free and partially bound) concentrations of each mAb were higher than the concentration required to bind to target (as shown by the surface plasmon resonance results of mAb binding to mouse DDR1 extracellular domain; see Table S2 below). Moreover, the maximal circulating (free and partially bound) concentrations of mAb #9H1 WT IgG1 were higher than the in vitro concentration required to inhibit Collagen I-induced phosphorylation of DDR1 in T47D cells (see FIG. 1).
A general note: In an ELISA, binding on a coated surface is turned into a signal by an enzyme label.

Read-outs that look alike come from different tables or passages of the source.

By Cmax is commonly meant the maximum level reached in the sampled fluid or tissue.

T1 sequence (Q08345 19-913): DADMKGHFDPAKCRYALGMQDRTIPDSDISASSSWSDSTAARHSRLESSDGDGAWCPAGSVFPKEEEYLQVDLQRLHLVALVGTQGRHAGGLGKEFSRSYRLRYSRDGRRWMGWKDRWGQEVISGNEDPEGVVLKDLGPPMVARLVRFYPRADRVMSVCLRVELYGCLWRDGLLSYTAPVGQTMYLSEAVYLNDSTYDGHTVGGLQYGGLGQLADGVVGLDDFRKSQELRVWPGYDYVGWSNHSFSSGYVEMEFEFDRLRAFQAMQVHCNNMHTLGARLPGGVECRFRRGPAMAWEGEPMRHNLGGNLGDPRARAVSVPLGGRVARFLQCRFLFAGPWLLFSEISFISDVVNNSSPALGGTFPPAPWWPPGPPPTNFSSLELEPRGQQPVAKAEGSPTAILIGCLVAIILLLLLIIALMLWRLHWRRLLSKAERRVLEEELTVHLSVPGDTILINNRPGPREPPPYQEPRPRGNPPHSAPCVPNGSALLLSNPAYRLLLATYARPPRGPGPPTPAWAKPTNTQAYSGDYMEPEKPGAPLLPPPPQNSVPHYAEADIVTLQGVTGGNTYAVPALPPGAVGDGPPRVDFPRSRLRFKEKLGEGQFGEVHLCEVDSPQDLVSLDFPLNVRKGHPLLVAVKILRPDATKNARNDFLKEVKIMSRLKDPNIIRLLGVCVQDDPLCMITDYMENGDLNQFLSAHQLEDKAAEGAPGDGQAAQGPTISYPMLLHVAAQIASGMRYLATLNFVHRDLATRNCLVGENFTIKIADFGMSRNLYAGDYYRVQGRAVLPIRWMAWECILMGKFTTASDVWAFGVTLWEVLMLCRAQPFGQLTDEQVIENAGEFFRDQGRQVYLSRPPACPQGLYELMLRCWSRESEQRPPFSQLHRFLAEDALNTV

B1: rabbit mAb #33: rabbit anti-DDR1 monoclonal antibody, light chain SEQ ID NO: 164, heavy chain SEQ ID NO: 165 (antibody)
heavy: QSVEESGGRLVTPGGSLTLTCTVSGFSLSSYDMSWVRQAPGKGLEWIGISWNSGFVDYASWAKGRFSISKTSTTVDLKITSPTTEDTATYFCARLGADDIYYFNLWGPGTLVTISSGQPKAPSVFPLAPCCGDTPSSTVTLGCLVKGYLPEPVTVTWNSGTLTNGVRTFPSVRQSSGLYSLSSVVSVTSSSQPVTCNVAHPATNTKVDKTVAPSTCSKPTCPPPELLGGPSVFIFPPKPKDTLMISRTPEVTCVVVDVSQDDPEVQFTWYINNEQVRTARPPLREQQFNSTIRVVSTLPIAHQDWLRGKEFKCKVHNKALPAPIEKTISKARGQPLEPKVYTMGPPREELSSRSVSLTCMINGFYPSDISVEWEKNGKAEDNYKTTPAVLDSDGSYFLYSKLSVPTSEWQRGDVFTCSVMHEALHNHYTQKSISRSPGK
light: ELVMTQTPASVEAAVGGTVTIKCQASETISSRLAWYQQKPGQPPKLLIYQASKLPSGVPSRFKGTGSGTEYTLTISDLECADAATYYCQGCYYGGGSFYDSAFGGGTEVVVKGDPVAPTVLIFPPAADQVATGTVTIVCVANKYFPDVTVTWEVDGTTQTTGIENSKTPQNSADCTYNLSSTLTLTSTQYNSHKEYTCKVTQGTTSVVQSFNRGDC
As for B1, the “inhibition of collagen I-induced phosphorylation of DDR1 (in words)” value in the series with DDR1 is “able to inhibit”.

B2: #33 inert IgG1: rabbit mAb #33 heavy and light chain variable domains fused to human IgG1 constant domains; SEQ ID NOs: 23 and 24 (protein)
chain 1: ELVMTQTPASVEAAVGGTVTIKCQASETISSRLAWYQQKPGQPPKLLIYQASKLPSGVPSRFKGTGSGTEYTLTISDLECADAATYYCQGCYYGGGSFYDSAFGGGTEVVVKRTVAAPSVFIFPPSDEQLKSGTASVVCLLNNFYPREAKVQWKVDNALQSGNSQESVTEQDSKDSTYSLSSTLTLSKADYEKHKVYACEVTHQGLSSPVTKSFNRGEC
chain 2: QSVEESGGRLVTPGGSLTLTCTVSGFSLSSYDMSWVRQAPGKGLEWIGISWNSGFVDYASWAKGRFSISKTSTTVDLKITSPTTEDTATYFCARLGADDIYYFNLWGPGTLVTISSASTKGPSVFPLAPSSKSTSGGTAALGCLVKDYFPEPVTVSWNSGALTSGVHTFPAVLQSSGLYSLSSVVTVPSSSLGTQTYICNVNHKPSNTKVDKRVEPKSCDKTHTCPPCPAPEAEGAPSVFLFPPKPKDTLMISRTPEVTCVVVDVSHEDPEVKFNWYVDGVEVHNAKTKPREEQYNSTYRVVSVLTVLHQDWLNGKEYKCKVSNKALPSSIEKTISKAKGQPREPQVYTLPPSREEMTKNQVSLTCLVKGFYPSDIAVEWESNGQPENNYKTTPPVLDSDGSFFLYSKLTVDKSRWQQGNVFSCSVMHEALHNHYTQKSLSLSPGK
On to B2, for which, in series [1], the “exposure over 168 hours (in words)” value is on record as “comparable to expected exposures for IgG1”, the tmax stood at 48 h and the maximum concentration (Cmax) is 131.82 µg/mL. Further, the peak concentration (Cmax) in series [1] (read-out: Cmax) was determined as 650 nM.

The values are drawn from US20250369982A1, “METHODS OF DETECTING DDR1 PHOSPHORYLATION” (IncendiaTherapeutics, Inc., priority 2022, published 2025).
